Results on 3 molecules are retold here after paper PMC2877774, “Structural and Biochemical Bases for the Redox Sensitivity of Mycobacterium tuberculosis RslA” (Journal of Molecular Biology, 2010).

To fix the notation:
B1: Anti-σ domain (ASD) of Mycobacterium tuberculosis RslA (residues 1–108), Zn2+-bound (domain or fragment)
chain: MTMPLRGLGPPDDTGVREVSTGDDHHYAMWDAAYVLGALSAADRREFEAHLAGCPECRGAVTELCGVPALLSQLDRDEVAAISESAPTVVASGLSPELLPSLLAAVHR
notes: Anti-sigma-L factor RslA, Mycobacterium tuberculosis, cytosolic anti-sigma domain, residues 1-108; also called holo-RslA; Mtb RslA

Data set [1] deals with the molecule itself. Description: SEC + other: dynamic light scattering.
The target of data set [2] is B1. Description: SPR; BIACORE 2000; RslA immobilised on a CM5 chip at 12 ng/mm2; σ^L, σ2^L, σ4^L as analytes; 20 mM Tris-HCl pH 7.8, 200 mM NaCl, 50 mM imidazole, 1 mM DTT (holo-RslA). Conditions: both partners purified. On the technique in general: SPR reads the build-up and loss of mass on a sensor chip optically.

“And” between values parts separate entries of the source, which are not always exact repeats. Equal entries are not always repeated.

For B1, the stoichiometry N – broadly, a count of units in the complex or per binding partner – in data set [1] was 2 and 4.

B2: Apo-RslA: anti-σ domain of Mycobacterium tuberculosis RslA (residues 1–108), Zn2+-free, oxidized (domain or fragment)
chain: MTMPLRGLGPPDDTGVREVSTGDDHHYAMWDAAYVLGALSAADRREFEAHLAGCPECRGAVTELCGVPALLSQLDRDEVAAISESAPTVVASGLSPELLPSLLAAVHR
modifications: disulfide bond between Cys54 and Cys57 in oxidized apo-RslA; Zn2+ removed
notes: For SPR the Zn2+ was removed on the chip with 10 mM H2O2 and 2 mM TPEN; in solution with 1 mM H2O2 and 5 mM TPEN; also called Zn^2+-free RslA; oxidized RslA
Regarding B2, in data set [1], the “stoichiometry N” value was 2 and 4.

B3: σ2^L domain of Mycobacterium tuberculosis σ^L (domain or fragment)
chain: MARVSGAAAAEAALMRALYDEHAAVLWRYALRLTGDAAQAEDVVQETLLRAWQHPEVIGDTARPARAWLFTVARNMIIDERRSARFRNVV
Consider B3, for which, in data set [2], the dissociation constant (Kd) – broadly, the concentration at which binding is half-saturated – was approximately 2000 nM.
